Measurements from paper PMC10419011.
Numbering of substitutions follows the chain as printed. Values belong to the binder of their own block, whether it stands above or below them.

Tests used:
[1] = biological target: neuropeptide Y (Homo sapiens), P01303; assay: competition; conditions: remark: other sources report otherwise
K^18-TAMRA-NPY = assay: fluorescence polarisation; various concentrations of receptor in small DMPC/DHPC bicelles with 50 nM (K^18-TAMRA)-NPY, 1 h at room temperature, measured at 20 °C; sigmoidal dose-response fit

- Kd [1]: 2.3 nM
B1: neuropeptide Y receptor Y2, P49146 (protein)
chain: MGPIGAEADENQTVEEMKVEQYGPQTTPRGELVPDPEPELIDSTKLIEVQVVLILAYCSIILLGVIGNSLVIHVVIKFKSMRTVTNFFIANLAVADLLVNTLCLPFTLTYTLMGEWKMGPVLCHLVPYAQGLAVQVSTITLTVIALDRHRCIVYHLESKISKRISFLIIGLAWGISALLASPLAIFREYSLIEIIPDFEIVACTEKWPGEEKSIYGTVYSLSSLLILYVLPLGIISFSYTRIWSKLKNHVSPGAANDHYHQRRQKTTKMLVCVVVVFAVSWLPLHAFQLAVDIDSQVLDLKEYKLIFTVFHIIAMCSTFANPLLYGWMNSNYRKAFLSAFRCEQRLDAIHSEVSVTFKAKKNLEVRKNSGPNDSFTEATNV

- Kd (K^18-TAMRA-NPY): 61.4 nM
B2: Y2R_A202^45.49C-Δ6Cys-polyHis, P49146 1-381 (receptor)
chain: B1 chain with C58A, C103A, C151A, A202C, C272S, C316A, C342S
modifications: not checked
